Measurements as given in PMC3506534, “LL-37 Induces Polymerization and Bundling of Actin and Affects Actin Structure” (PLoS ONE, 2012).
Read-outs that look alike come from different tables or passages of the source. No end group written: not given here.

Tests used:
Mg-F-actin [1] = biological target: T1, Mg-F-actin (Oryctolagus cuniculus, UniProt P68135); assay: Extent of Mg-F-actin bundling by low speed sedimentation; format: biochemical, rabbit; details: for EC50: read-out: concentration for half maximal bundling
T1 construct: CaATP-G-actin was prepared from acetone dried powder derived from the back and leg muscles of rabbit by the method of Spudich and Watt; from tissue; host or cells: rabbit back and leg skeletal muscle (acetone dried powder)
Experimental: (§1) CaATP-G-actin was prepared from acetone dried powder derived from the back and leg muscles of rabbit by the method of Spudich and Watt that even without gel filtration yields highly homogeneous actin in purity greater than 90%. CaATP-G-actin was stored in a buffer containing 5 mM TrisHCl, 0.2 mM CaCl2, 0.2 mM ATP, 0.5 mM β-mercaptoethanol, pH 8.0 (CaATP-G-buffer). MgATP-G-actin was obtained by incubating CaATP-G-actin with 0.2 mM EGTA and 0.1 mM MgCl2 at room temperature for 5 min. MgATP-G-actin was diluted for further treatments in MgATP-G-buffer containing 5 mM MOPS, 0.1 mM MgCl2, 0.2 mM EGTA, 0.2 mM ATP and 0.5 mM DTT, pH 7.4. MgF-actin was polymerized from MgATP-G-actin or CaATP-G-actin by 30 min incubation with 2 mM MgCl2 at room temperature. The concentration of unlabeled rabbit skeletal muscle α-G-actin was determined spectrophotometrically using the extinction coefficients E^1% 290 = 11.5 cm^−1. (The optical density of actin was measured in the presence of 0.5 M NaOH, which shifts the maximum of absorbance from 280 nm to 290 nm). Molecular masses of skeletal actin, yeast cofilin, hen-lysozyme and LL-37 were assumed to be 42 kDa, 15.9 kDa, 14.3 kDa and 4.5 kDa respectively.
After addition of polycations, actin samples were centrifuged at 20,800×g at 4°C for 8 min (in an Eppendorf centrifuge). The supernatants were run using SDS-PAGE and analyzed by densitometry using the TINA 2.07d software.
Figure 3 LL-37, scrambled LL-37 and lysozyme induced bundle formation of Mg-F-actin at low and physiological (100 mM NaCl) ionic strength. (A) Kinetics of LL-37-induced bundle formation: LL-37 (2–8 µM) was added to MgF-actin (2 µM) and bundle formation was followed as an increase in light scattering at 350 nm. Presented data are representative of three independent experiments. (B) Extent of LL-37 and lysozyme induced bundle formation: LL-37 or lysozyme (0.5–9 µM) were added to Mg-F-actin (4 µM). Samples were centrifuged at 20,800×g, for 8 min and the supernatants were analyzed by SDS-PAGE and densitometry. (C) Extent of LL-37 and scrambled LL-37 induced bundle formation: LL-37 or scrambled LL-37 (2–14 µM) were added to MgF-actin (4 µM) and bundle formation was measured as in (B). The presented data are mean and standard deviation of three independent experiments in (B) and (C).

[2] = tested on: LL-37-induced Mg-F-actin bundles; assay: Kinetics of dissociation of LL-37-induced Mg-F-actin bundles (light scattering); format: biochemical, rabbit; details: 200 mM NaCl; 4 µM MgF-actin bundled by 9 µM LL-37; 450 nm
Experimental: Bundling of MgF-actin was followed by increase in light scattering [20]. The time course of light scattering changes was also measured in a PTI spectrofluorometer, with both excitation and emission wavelengths adjusted to 450 nm. All fluorescence and light scattering measurements were carried out at 22°C.
This was followed by the addition of 6 µM DNase1, cofilin, or 200 mM NaCl. Bundling and dissociation was monitored as a change in light scattering.
This was followed by the addition of 6 µM DNase1, 6 µM cofilin, or 200 mM NaCl (thick arrow). Bundling and dissociation were followed as an increase and decrease in light scattering, respectively, measured at 450 nm. Presented data are representative of three independent experiments.

[3] = gelsolin; ref [6]; cited from earlier work
Excerpt: LL-37-induced actin polymerization and bundling was chosen as the subject of this study. LL-37 is a 37 amino acid polycationic peptide with 6 net positive charges and is the only known member in human of the cathelicidin family of host defense peptides. In addition to its antimicrobial activity, the host defense activities of LL-37 include chemoattraction, cytokine release, tissue regeneration, inhibition of immunostimulation and apoptosis,[26]. […] There, it increases the F-actin content in the cyt ...

[4] = gelsolin; ref [30]; cited from earlier work
Excerpt: (§2) Bundles of actin filaments are major contributors to the viscosity of sputum in the airways of cystic fibrosis patients. LL-37, which also has been found in the sputum, may contribute to actin bundle formation. […] Here, we studied the effect of cofilin [39] and DNase1 on the stability of LL-37-induced bundles.

[5] = tested on: LL-37-induced Mg-F-actin bundles; details: gelsolin; ref [38]; cited from earlier work
Excerpt: as §2

MgATP-G-actin [6] = biological target: T2, MgATP-G-actin (Oryctolagus cuniculus, UniProt P68135); assay: Effect on MgCl2- or NaCl-induced polymerization of MgATP-G-actin (pyrene fluorescence); format: biochemical, rabbit; details: 4 µM LL-37 or lysozyme added simultaneously with salt; 2 µM MgATP-G-actin, 10% pyrene labeled; 22°C
T2 construct: CaATP-G-actin was prepared from acetone dried powder derived from the back and leg muscles of rabbit by the method of Spudich and Watt; from tissue; host or cells: rabbit back and leg skeletal muscle (acetone dried powder)
Experimental: as §1, with “MgF-actin was polymerized from MgATP-G-actin or CaATP-G-actin by 30 min incubation with 2 mM MgCl2 at room temperature.” left out, “Molecular masses of skeletal actin, yeast cofilin, hen-lysozyme and LL-37 were assumed to be 42 kDa, 15.9 kDa, 14.3 kDa and 4.5 kDa respectively.” left out
(§3) Labeling of Mg-F-actin at Cys-374 with pyrene maleimide was carried out according to Kouyama and Mihashi with some modifications. […] The concentration of modified actin was determined by the procedure of Bradford using unmodified actin as a standard. The extent of labeling, which was measured by using pyrene extinction coefficient E344 nm = 22000 cm^−1M^−1, was ∼100%. […]

Mg-F-actin [7] = biological target: T1, Mg-F-actin; details: lysozyme; ref [20]; cited from earlier work
Experimental: Bundling kinetics of MgF-actin by LL-37, lysozyme and scrambled LL-37 were studied by increase in light scattering and the extent of bundling was determined using low speed centrifugation. The bundling of MgF-actin by LL-37 is also shown by electron microscopy (Figure S1). Mg-F-actin bundle formation was very fast both with LL-37 (Figure 3A) and lysozyme. The extent of bundling was dependent on the concentration and the nature of the polycation used (Figure 3B). At low ionic strength more than 50% of Mg-F-actin was bundled upon addition of lysozyme (1 µM) to Mg-F-actin (4 µM). A similar ...

MgATP-G-actin [8] = biological target: T2, MgATP-G-actin; assay: Polymerization of MgATP-G-actin at low ionic strength (pyrene fluorescence); format: biochemical, rabbit; details: 2 µM MgATP-G-actin, 10% pyrene labeled; low ionic strength MgATP-G-buffer pH 7.4; 22°C; representative of three independent experiments
Experimental: as §1, with “MgF-actin was polymerized from MgATP-G-actin or CaATP-G-actin by 30 min incubation with 2 mM MgCl2 at room temperature.” left out, “Molecular masses of skeletal actin, yeast cofilin, hen-lysozyme and LL-37 were assumed to be 42 kDa, 15.9 kDa, 14.3 kDa and 4.5 kDa respectively.” left out
as §3

Mg-F-actin [9] = biological target: T1, Mg-F-actin; assay: NaCl concentration dependent stability of Mg-F-actin bundles (low speed sedimentation); format: biochemical, rabbit; details: 4 µM MgF-actin bundled by 6 µM lysozyme or 10 µM sLL-37; 10 min room temperature
Experimental: as §1, with “MgF-actin was polymerized from MgATP-G-actin or CaATP-G-actin by 30 min incubation with 2 mM MgCl2 at room temperature.” left out, “Molecular masses of skeletal actin, yeast cofilin, hen-lysozyme and LL-37 were assumed to be 42 kDa, 15.9 kDa, 14.3 kDa and 4.5 kDa respectively.” left out
After addition of polycations, actin samples were centrifuged at 20,800×g at 4°C for 8 min (in an Eppendorf centrifuge). The supernatants were run using SDS-PAGE and analyzed by densitometry using the TINA 2.07d software. […]
Figure 4 NaCl concentration dependent bundling of MgF-actin by LL-37, lysozyme and sLL-37. […] The supernatants were analyzed by SDS-PAGE and densitometry. […]

Molecule: GLKLRFEFSKIKGEFLKTPEVRFRDIKLKDNRISVQR [Scrambled LL-37]
- MgF-actin bundled (Mg-F-actin [1]; sLL-37 10 µM, 4 µM MgF-actin, low ionic strength): more than 60%

Molecule: [Cl-].[Na+] [NaCl]
- rate and completeness of dissociation [2]: complete and very fast

Molecule: Gelsolin
- effect on LL-37 antibacterial activity [3]: restore
- effect on sputum viscosity [4]: significantly reduce the viscosity of sputum
- dissociation of LL-37-induced actin filament bundles [5]: dissociate LL-37-induced actin filament bundles

Molecule: lysozyme: Hen lysozyme, antibacterial polycationic protein, 14.3 kDa, from Sigma
- EC50 (Mg-F-actin [1]; 4 µM Mg-F-actin, low ionic strength): 1 µM
- EC50 (Mg-F-actin [1]; 4 µM Mg-F-actin, physiological ionic strength (100 mM NaCl)): 6 µM
- Mg-F-actin bundled (Mg-F-actin [1]; lysozyme 1 µM, 4 µM Mg-F-actin, low ionic strength, 20,800×g 8 min, SDS-PAGE densitometry, three independent experiments): more than 50%
- effect on polymerization induced by 2 mM MgCl2 or 100 mM NaCl (MgATP-G-actin [6]): no inhibitory effect
- rate of Mg-F-actin bundle formation (Mg-F-actin [7]): very fast
- concentration giving polymerization of MgATP-G-actin (MgATP-G-actin [8]): 1 µM
- NaCl concentration at which bundle stability was decreased (Mg-F-actin [9]): 50 mM
- NaCl concentration in which bundles completely dissociated (Mg-F-actin [9]): 150 mM
